Results taken from patent US20260022155A1.

Molecular target: HVEM expressed on cell lines (KTPloCD86A2 HVEM; K562CD19/HVEM) (UniProt Q92956)
Assay: cell-based or functional assay
Conditions: scale: times higher than CD19-28z electroporated T cells

Chain of UniProt Q92956 (Q92956 39-283 limits assumed): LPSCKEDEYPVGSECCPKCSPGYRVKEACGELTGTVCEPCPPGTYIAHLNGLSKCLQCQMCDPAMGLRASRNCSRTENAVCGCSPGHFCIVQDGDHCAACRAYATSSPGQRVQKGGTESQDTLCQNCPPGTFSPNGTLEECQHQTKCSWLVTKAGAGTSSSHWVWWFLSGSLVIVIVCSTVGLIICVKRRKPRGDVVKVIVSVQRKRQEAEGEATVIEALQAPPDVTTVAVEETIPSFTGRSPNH

IL-2 production (ELISA) of T cells co-electroporated with CD19z and BTLA-CD28 CCR: 4
Substance: BTLA-CD28 CCR (receptor)
